The record followed here is paper PMC8346517, “The intervening domain is required for DNA-binding and functional identity of plant MADS transcription factors” (Nature Communications, 2021).

This series deals with the molecule itself. Kind of series: crystal structure; SEP3 MI at 6 mg/ml, without DNA; 0.2 M potassium sodium tartrate, 0.1 M bis-tris propane pH 7.5, 20% PEG 3350, 4 °C; space group C222(1), dimers formed by crystallographic symmetry.

B1: SEP3^MI (MADS-box and I domain of …3, residues 1-90) (domain or fragment)
chain: not shown
notes: His6-MBP fusion from the vector pETM41, cleaved with TEV protease; residues 1-18 and the 17 C-terminal residues are disordered in the crystal; also called SEP3 MI domain; source: E. coli BL21 Codon Plus, purified (Ni-NTA, heparin, TEV cleavage, Ni-NTA, heparin)
On to B1, for which the binding result is given as “binds”.
